Reference: US7541183B2, “Growth and differentiation of adult muscle stem cells with activators or inhibitors of Wnt signaling” (Ottawa Health Research Institute, priority 2003, dated 2009)

Columns and labels:
CD45+:Sca1+ muscle cells = type: cell-based
Procedure: Mononuclear cells were washed twice with DMEM supplemented with 5% FBS, and suspended at a concentration of 2−3×10^6 cells/ml. […] Primary antibodies were diluted at 1:200, and Streptavidin Tri-Color Conjugate was diluted 1:1000. After two washes with DMEM at 4° C., cells were separated on a MoFlo cytometer (DakoCytomation), equipped with 3 lasers. Sort gates were strictly defined based on isotype control stained cells and single antibody staining. Dead cells and debris were excluded by gating on forward and side scatter profiles. Sorting was performed using single cell mode to achieve the highest possible purity. The purity of sorted populations was routinely >98%.
Primary myoblasts were isolated from hind limb muscle of 3-week old Balb/c mice, and maintained in HAM's F-10 medium (Invitrogen) supplemented with 20% FBS, and 2.5 ng/ml bFGF (Invitrogen).
For co-culture experiments, primary myoblasts or Wnt-expressing cells were mixed with purified CD45^+:Sca1^+ cells at a ratio of 1:1, and seeded on Collagen-coated 2-well Permanox Chamber Slides (Lab-Tek). The density was 2×10^4 cells/chamber for co-culture in growth conditions, and 4×10^4 cells/chamber for differentiation experiments. […] Fluoroscein or Rhodamine conjugated antibodies (Chemicon) were used for secondary detection. Cover slides were mounted and analyzed using a Zeiss Axioscop fluorescent microscope.

[1] = tested on: Myf5nLacZ+ satellite cells; assay: Impact of cardiotoxin injection on myogenic progenitors in injured muscle; type: in vivo, Myf5nLacZ mice; conditions: 18 hours post-ctx injection
Procedure: For direct analysis of sorted cell populations, cells were washed and suspended in phosphate-buffered saline (PBS), and cytospun onto silanized slides (DAKO). X-gal staining was performed as described previously (Kablar, 1997, Development 124, 4729-4738).
5 to 8 week-old mice were anaesthetised with Halothane gas. 25 μl of 10 μM cardiotoxin (Latoxan) was injected directly into the TA muscle, using a 29 G 1/2 insulin syringe. For cell proliferation assays, 0.3 mg/kg of 5-bromo-deoxyuridine (BrdU, Sigma) was injected intraperitoneally 90 minutes prior to sacrificing animals. Cells that had incorporated BrdU were detected by flow cytometry using a FITC conjugated anti-BrdU antibody (ED Pharmingen). For sFRP experiments, 100 ng of recombinant sFRP 2 and 3 (R&D Systems) were injected into regenerating TA muscle. Control animals received injections of equal volumes of PBS. For analysis of total TA cell populations, 1×10^4 mononuclear cells were plated on collagen-coated chamber slides overnight and then stained with anti-Desmin antibody (DAKO) at 1:200. Donkey anti-mouse FITC (Chemicon) at 1:500 was used for secondary detection.

In the case of “Shh: recombinant Sonic Hedgehog (Shh-N, R&D Systems)”, the “increase in CD45+:Sca1+ cell survival” value (CD45+:Sca1+ muscle cells; 100 ng/ml Shh) is reported as 3-4 fold and the “myogenic differentiation efficiency of CD45+:Sca1+ cells” value (CD45+:Sca1+ muscle cells; recombinant Shh at 10 or 100 ng/ml, cells alone or in co-culture with myoblasts) is reported as “did not influence”.

With cardiotoxin the “reduction in the number of Myf5nLacZ+ cells relative to uninjured muscle” value [1] was roughly 30 fold, the “reduction in the number of Myf5nLacZ+ cells relative to uninjured muscle” value ([1]; listed as ctx) was “approximately 30 fold” and the “number of Myf5nLacZ+ cells” value ([1]; uninjured muscle 4.1×10^4±1.6×10^4) was 1.18×10^3±1×10^3 cells/g tissue.
